Measurements reported in the DeepSol protein solubility set.

test: soluble on expression in E. coli; label from the status in PepcDB or PDB records

Row | Sequence | soluble on expression in E. coli
1 | SNAMNDIILKSLSTLITEQRNPNSVDIDRQSTLEIVRLMNEEDKLVPLAIESCLPQISLAVEQIVQAFQQGGRLIYIGAGTSGRLGVLDASECPPTFGVSTEMVKGIIAGGECAIRHPVEGAEDNTKAVLNDLQSIHFSKNDVLVGIAASGRTPYVIAGLQYAKSLGALTISIASNPKSEMAEIADIAIETIVGPEILTGSSRLKSGTAQKMVLNMLTTASMILLGKCYENLMVDVQASNEKLKARAVRIVMQATDCNKTLAEQTLLEADQNAKLAIMMILSTLSKSEAKVLLERHQGKLRNALSK | soluble
2 | SNAMNFFTSPFSGIPLDQQVTNPNIIVGKHSYYSGYYHGHSFDDCVRYLHPERDDVDKLVIGSFCSIGSGAVFMMAGNQGHRSDWISTFPFFYQDNDNFADARDGFTRSGDTIIGHDVWIGTEAMIMPGVKIGHGAIIASRSVVTKDVAPYEVVGSNPAKHIKFRFSDVEIAMLLEMAWWNWPESWLKESMQSLCSSDIEGLYLNWQSKART | soluble
3 | SNAMRSAQVYRWQIPMDAGVVLRDRRLKTRDGLYVCLRDGEREGWGEISPLPGFSQETWEEAQTALLTWVNDWLQGSEGLPEMPSVAFGASCALAELTGVLPEAADYRAAPLCTGDPDDLVLRLADMPGEKIAKVKVGLYEAVRDGMVVNLLLEAIPDLHLRLDANRAWTPLKAQQFAKYVNPDYRARIAFLEEPCKTRDDSRAFARETGIAIAWDESLREADFTFEAEEGVRAVVIKPTLTGSLDKVREQVAAAHALGLTAVISSSIESSLGLTQLARIAAWLTPGTLPGLDTLHLMQAQQIRPWPGSALPCLKREELERLL | soluble
4 | SNAMSDTLYIKMDQAVEITKKQVTVGDVAKLQCKNKNITNRLKSMKLLEDTTKGKKRYIVSIMKIIEMADQTFQNVDIQNIGETECVVEFKTPKKDDGPM | soluble
5 | SNAMSKDSESNLAQRQSQPKAHADLRINSHWIIPIENTTDHNLVSNILIDHCLLIKDGIILAIEPQSSCQIPATETLDLGQQVLMPGWVNAHGHAAMSLFRGLADDLPLMTWLQEHVWPAEAQHVDEHFVKQGTELAIAEMIQSGTTTFADMYFYPQQSGEAALAAGIRAVCFAPVLDFPTNYAQNADEYIRKAIECNDRFNNHPMNEQGLVQIGFGPHAPYTVSDEPLKEITMLSDQLDMPVQIHLHETDFEVSESLETFNKRPTQRLADIGFLNERVSCVHMTQVDDGDIKILQKTGASIIHCPESNLKLASGFCPIAKLSAANIPLAIGTDGAASNNDLDMFSETKTAALLAKGVSQDASAIPAIEALTMATLGGARALGIDDITGSLKPGKAADIQAIDLNTLSSQPVFDPVSHMVYCTKSTQVSHVWVNGRCLLKNGELTTLNEETLINHAKAWASAIRTPIK | soluble
6 | SNAMTEEHVVLLDEQDKPSGTLEKYAAHTLNTPLHLAFSCWLFNEDGQLLVTRRSLSKKAWPGVWTNSVCGHPQQGETTEEAIIRRCRFELGVEITDLTPVYPHFSYRATDPNGIVENEVCPVFAARATSVLQVNSEEVMDYQWSEFKSVWKSLLATPWAFSPWMVMQASDEQARERLLNYCQR | soluble
7 | SNAMTTKRVKKMGKEEMKEMFDLVIYAFNQEPTAERQERFEKLLSHTQSYGFLIDEQLTSQVMATPFQVNFHGVRYPMAGIGYVASYPEYRGEGGISAIMKEMLADLAKQKVALSYLAPFSYPFYRQYGYEQTFEQAEYTIKTEDWPRVKRVPGTIKRVSWADGKEVIKDVYLENQRAHSGGVIRETWWLDYTLNRASKPNNQAIYYSSEGKAEGYVIYRIAAGTFEIVEWNYLTNTAFKALAGFIGSHSGSVQSFHWINGFAGKDLNDLMPTPAASVKILPYMMARIVELQTFLEKYPFQSGEKETYSLEIEDSYGPWNEGIWTITIDEQGKATVTKGAAEKEGTAALKADIQTWTQLFLGYRSAETLSFYERLQGDATIAQRLGQRLVKGMPILEDYF | soluble
8 | SNAWGLSVERSTYFLAPADRHYLADYARQAEDAWRREGAAGAERFRKELSAKEDTWVALVGPHLESLGSTPLSAEESSHLTFMRKLDWPMSRRLQDELPYVSIEFPGHPEQGRLVIQLPERLLPG | soluble
9 | SNQLQQLQNPGESPPVHPFVAPLSYLLGTWRGQGEGEYPTIPSFRYGEEIRFSHSGKPVIAYTQKTWKLESGAPMHAESGYFRPRPDGSIEVVIAQSTGLVEVQKGTYNVDEQSIKLKSDLVGNASKVKEISREFELVDGKLSYVVRMSTTTNPLQPHLKAILDKL | soluble
10 | SPAPVQDPHLIKVTVKTPKDKEDFSVTDTCTIQQLKEEISQRFKAHPDQLVLIFAGKILKDPDSLAQCGVRDGLTVHLVIKRQHRAMGNECPA | soluble
11 | SPNPPKLTKQMNAIIDTVINYKDSSGRQLSEVFIQLPSRKELPEYYELIRKPVDFKKIKERIRNHKYRSLGDLEKDVMLLCHNAQTFNLEGSQIYEDSIVLQSVFKSARQ | soluble
12 | SQGENVDHAQPISTWSAEQELHLVVFTKPPIAGLTKQRLSREIGSTLATRISAALVENTLATAYDWLQGLDLQAGGTGAVHLYYTPVESEQAKAECVERWLDDSVRHRYPAFRIAPQKASKVQSTGDQKQDPLGSRLIQAFTEVTSLVDESRDAHVVVIGSDCPALDTAVLQQAFAALHAGHGAVIGPAQDGGYYLLGLAFAAAERTRWARVIYAAFGPHLVFSQNDVCARTVEALRNDGVRTICLPVTLNDVDTAQDLVHLPASMRPREWFSSANARLHKTSDLVETAPAPGSTTCDEEVDADKLDPSVQNVCSRQV | soluble
13 | SQPLLDRSIPDFTAFTTVDDWLSAIKMVQYRDSFLTAGFTSLQLVTQMTSEDLLRIGITLAGHQKKILNSIHSMRVQISQSPTAMA | soluble
14 | SQSLGDRQRDNEKIDKMQQILRSVNAGIEDKGKVIARYTDVIKQELLINQDGTVAKTFEGEQLAQNEAFTLNTRNAFKSAANDPSISLPLYIAEIEGQKK | not soluble
15 | SQTVHFQGNPVTVANSIPQAGSKAQTFTLVAKDLSDVTLGQFAGKRKVLNIFPSIDTGVSAASVRKFNQLATEIDNTVVLCISADLPFAQSRFCGAEGLNNVITLSTFRNAEFLQAYGVAIADGPLKGLAARAVVVIDENDNVIFSQLVDEITTEPDYEAALAVLKA | soluble
16 | SREAVTVQVGGFANYVGSYFWNFQDELLGLADDPDADPVFKNAALDMDVLYRSGETHQGVATYCPRLVSVDSRGSLGSLSSSGNLGQSSTAADQLNVATWSGNVTRSVSKPHGRNLFLQSLVEEGQNPSTSNGGSNSQKSVEYKDLIECLENGINFWTDYSKVHYHPQSLYELYGSWTDFDKFDNYGSAQEVVSDWSQIEEMNERLRFFVEECDHIQGIQFIVDDSGGFSSVAAQFLENIADDYTNTLVLLYCVRDPMTLGPSRRNQRESIMRALHDAVSFSKLSSFCNLMVPIGPPSLSRSCMSPYLYIQDEKPFHASAVCAAAIHSITVPFRLQRTGPSSDLAHSSGNLDIGELVHILSDQGRQNMVTALDVAMPAPSLTDRDAMGNIEMKLHSLTPEISDEDEDPYSVESLVVHGALDRGGQRTSISQVKDSVCSVYEARETKPKFSHLSASLCPLPVPLPFPSIFRGNIGRHGEILSDHTEESQPKGSLDIESIPMAARLRSSSAVLPFIERRSGSLQKHGVARGAIGSLVLHDWGFGREEVEDMAEHLAKLLGPFHPEMDLTSDSD | soluble
17 | SRGRGGTGGARRLSCGARRRAARGTSPGRRLSTAWSQPQPPPEEYAGADDVSQSPVAEEPSWVPSPRPPVPHESPEPPSGRSLVQRDIQAFLNQCGASPGEARHWLTQFQTCHHSADKPFAVIEVDEEVLKCQQGVSSLAFALAFLQRMDMKPLVVLGLPAPTAPSGCLSFWEAKAQLAKSCKVLVDALRHNAAAAVPFFGGGSVLRAAEPAPHASYGGIVSVETDLLQWCLESGSIPILCPIGETAARRSVLLDSLEVTASLAKALRPTKIIFLNNTGGLRDSSHKVLSNVNLPADLDLVCNAEWVSTKERQQMRLIVDVLSRLPHHSSAVITAASTLLTELFSNKGSGTLFKNAERMLRVRSLDKLDQGRLVDLVNASFGKKLRDDYLASLRPRLHSIYVSEGYNAAAILTMEPVLGGTPYLDKFVVSSSRQGQGSGQMLWECLRRDLQTLFWRSRVTNPINPWYFKHSDGSFSNKQWIFFWFGLADIRDSYELVNHAKGLPDSFHKPASDPGS | soluble
18 | SRLFSKALKGDHRCGETETPKSCSEVAGCKAAMRHQGKIPEELSLDDRARTQKKWGRGKWEPEPSSKPPREATLEERHARGEKHLGVEIEKTSGEIIRCEKCKRERELQQSLERERLSLGTSELDMGKGPMYDVEKLVRTRSCRRSPEANPASGEEGWKGDSHRSSPRNPTQELRRPSKSMDKKEDRGPEDQESHAQGAAKAKKDLVEVLPVTEEGLREVKKDTRPMSRSKHGGWLLREHQAGFEKLRRTRGEEKEAEKEKKPCMSGGRRMTLRDDQPAKLEKEPKTRPEENKPERPSGRKPRPMGIIAANVEKHYETGRVIGDGNFAVVKECRHRETRQAYAMKIIDKSRLKGKEDMVDSEILIIQSLSHPNIVKLHEVYETDMEIYLILEYVQGGDLFDAIIESVKFPEPDAALMIMDLCKALVHMHDKSIVHRDLKPENLLVQRNEDKSTTLKLADFGLAKHVVRPIFTVCGTPTYVAPEILSEKGYGLEVDMWAAGVILYILLCGFPPFRSPERDQDELFNIIQLGHFEFLPPYWDNISDAAKDLVSRLLVVDPKKRYTAHQVLQHPWIETAGKTNTVKRQKQVSPSSEGHFRSQHKRVVEQVS | soluble
19 | SRLMNEIRETRGLAYSVYSTFAPYQEKGPFEIGLQTKKEQAEQALQLTQKTLRDFVEQGPTEEELQAARQNIVGGFPLRIDSNQKILGYLGVIGFYDLPLTYLEDYVKAVEKVTVAQIRDAFKRRIDPAGMVTVVVGA | not soluble
20 | SRMNPTIMVPGSEATQERFNETLASLNKQGKKHSILKLTVHKDNSISYSGQIAASDNRPYIVVAFADNKDSYTTIKKQAKWLDHALDELQKKYHFKNFNAIGHSNGGLDWTVYLENYYAKENFHLNTLMTIGTPYNFEVVNSSNHTQMLQDLIAAKDALPDDLTVYNVAGTNSYDGDYIVPITSVETGKYIFQKTIKQYTQITVTGNEAEHSDLPTNKEVLDLISENILNNNRKKVDPKNQN | not soluble
21 | SRRSLRAGKRRQTAGRKSKSPPKVPIVIQDDSLPAGPPPQIRILKRPTSNGVVSSPNSTSRPTLPVKSLAQREAEYAEARKRILGSASPEEEQEKPILDRPTRISQPEDSRQPNNVIRQPLGPDGSQGFKQRR | soluble
22 | SRSKQKSRRRCFQCQTKLELVQQELGSCRCGYVFCMLHRLPEQHDCTFDHMGRG | soluble
23 | SRTLQFTKMATDHSGAGNLMDCWNAGLELKSCTDEIVKFFLSQTGTSEPPVKGGIDKDCCGAIGLVVKDCWSVMFTSLGLTTMEGNNLREYCEFQAEKSELSPSPAPETLALSPVEITYPGLDY | soluble
24 | SSAEQSFLFSREEADTLRLKVEELEGERSRLEEEKRMLEAQLERRALQGDYDQSRTKVLHMSLNPTSVARQRLREDHSQLQAECERLRGLLRAMERGGTV | soluble
25 | SSATPIVQFQGESNCLKCFRYRLNDKHRHLFDLISSTWHWASPKAPHKHAIVTVTYHSEEQRQQFLNVVKIPPTIRHKLGFMSMHLL | soluble
26 | SSDANLDSSKKNFLEGEVDDEESVILTLVPVKDDANMEQMEPSVSSTSDVKLEKPKKYNPGHLLQTNEQFTAPQKARCKIPALPLPTILPPINKVCRDTLRDWCQQLGLSTNGKKIEVYLRLHRHAYPEQRQDMPEMSQETRLQRCSRKRKAVTKRARLQSSYEMNERAEETNTVEVITSAPGAMLASWARIAARAVQPKALNSCSIPVSVEAFLMQASGVGWCVVHGRLLSADTKGWVRLQFHAGQAWVPTTHRRMISLFLLPACIFPSPGIEDNMLCPDCAKRNKKMMKRLMTVEK | soluble
